Experiment in all cases: cell-based or functional assay
Test [1] concerns the target human CD73 on cells (H322, MDA-MB-231, HT-144, T cells, CD73-transfected HEK293T) (human) (UniProt P21589).
The target is the same in test [2]. This is another data set of the same source.
Test [3] shares this target. The source holds these as a separate data set.

Read-outs that look alike come from different tables or passages of the source.

Sequence of human CD73 on cells (H322, MDA-MB-231, HT-144, T cells, CD73-transfected HEK293T) (human) (P21589 27-549): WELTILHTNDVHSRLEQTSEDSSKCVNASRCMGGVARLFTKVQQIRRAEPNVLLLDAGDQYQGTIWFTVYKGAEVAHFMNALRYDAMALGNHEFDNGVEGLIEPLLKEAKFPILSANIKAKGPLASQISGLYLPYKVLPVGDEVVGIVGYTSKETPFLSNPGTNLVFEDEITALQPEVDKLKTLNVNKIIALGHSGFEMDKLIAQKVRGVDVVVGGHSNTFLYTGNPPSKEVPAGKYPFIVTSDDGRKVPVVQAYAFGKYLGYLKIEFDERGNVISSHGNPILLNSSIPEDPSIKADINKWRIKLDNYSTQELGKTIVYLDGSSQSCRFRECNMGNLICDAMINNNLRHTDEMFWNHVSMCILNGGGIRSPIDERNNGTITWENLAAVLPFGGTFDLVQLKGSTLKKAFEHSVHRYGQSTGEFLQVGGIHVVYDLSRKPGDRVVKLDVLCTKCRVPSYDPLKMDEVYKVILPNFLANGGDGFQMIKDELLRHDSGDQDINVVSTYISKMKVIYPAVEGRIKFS

“Benchmark antibody (antibody having the same sequences as the published variable regions of MEDI9447)”: the IC50 of AMP degradation suppressive function, H322 cells in test [1] was 0.04 mg/L. In test [2], this substance showed an IC50 of AMP degradation suppressive function (cell line of Table 7 not stated; H322 in FIG. 12) of 0.007 mg/L; an IC50 of AMP degradation suppressive function, H322 cells of 0.091 mg/L; an IC50 of AMP degradation suppressive function, MDA-MB-231 cells of 0.111 mg/L. Moreover, in test [3], the IC50 of AMP degradation suppressive function, H322 cells came to 0.02 mg/L.

These data come from US20230220104A1.
